Data on 29 sequences can be found in the supplement of paper PMC9170038.

The subject of the data set is MS2 coat protein. The data set is described as follows: apparent KD of MS2 coat protein; designed switch direction (-1 OFF switch, 1 ON switch): -1; higher = weaker reporter binding. The procedure, abridged:
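Designed RNA switches were transcribed on Illumina chips by stalled E. coli RNA polymerase and titrated with SNAP-549-labelled MS2 coat protein from 0.7 or 1.5 nM, doubling to 3 µM. Step length ran from 0.8–1.5 h at the lowest concentration to 10–20 min at the highest. The apparent KD is the median over clusters for each design, from curve-fitted normalised cluster fluorescence.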

Setting [1] is: Eterna round: R95, input ligand: FMN 200 uM.
Setting [2] is: Eterna round: R95, input ligand: microRNA oligo, concentration not stated.
Where [3] appears, read: Eterna round: R95, input ligand: none.
The mark [4] stands for this setting: input ligand: microRNA oligo, concentration not stated.

With “UUUGCAAGCUUAUGAUCCCACAUGAGGAUCACCCAUGUUCCUGGCCGUGAGGCUAGGAUAACAUAUGCUCGUCUUAU [JL TOV1 3.64] (Eterna round: R97, puzzle: Sensor, turn-off variant 1)”, the “apparent KD of MS2 coat protein” value worked out at 703 nM (input ligand: FMN 200 uM) and 814 nM (input ligand: none).

Turning to “CCAGGCAGUGUGAGGAUAUGCUGGUGCAUACAUCAGCAGAAGGCACAUGAGGAUCACCCAUGUGAAGAGCUUGG [Mat - Exclusion 4 - JL Mod - D98] (puzzle: Brourd's mod of Exclusion 4)”, the “apparent KD of MS2 coat protein” value runs as follows: under setting [1], 179 nM; under setting [2], 16.9 nM; under setting [3], 27.5 nM.

As to “ACAAGCUUUUUGUUCGUCUUAUACACUCCUAAUAAGACAACAUGAGGAUCACCCAUGUAACAAAUAAGAACUCAUGU [Sesor Array 5 - Jieux - Sensor v3, turn-off variant 2] (puzzle: Sensor v3, turn-off variant 2)”, the “apparent KD of MS2 coat protein” value by setting is: under setting [1], 75 nM; under setting [2], 293 nM; under setting [3], 90.2 nM.

Regarding “UGGUCACAUGAGGAUCACCCAUGUCAGGAUAUCGUCACUGGAGCCUCGGCUCCAGUGACGAGAAGGGACAUAAU [E1/6-A2] (Eterna round: R97, puzzle: Exclusion 1)”, the “apparent KD of MS2 coat protein” value is, setting by setting: (input ligand: FMN 200 uM) 267 nM; (input ligand: none) 254 nM.

For the sequence “ACCCAACAUGAGGAUCACCCAUGUCAGGAUAUCCAUCACUAUCACGAAAGGAUAGGAUGGAGAAGGGACAGAGG [ChP 04-04-2015 #3] (puzzle: Exclusion 1)”, the “apparent KD of MS2 coat protein” value amounted to 325 nM under setting [1], 99.8 nM under setting [2] and 158 nM under setting [3].

“GCCUUAUGAGUCAGGAUAUACAAUAAAAUAAUUAAGUAGAAGGGACAUGAGGAUCACCCAUGUACAUUACAUUG [alecazam28] (Eterna round: R97, puzzle: Brourd's mod of Exclusion 4)”: the “apparent KD of MS2 coat protein” value is 82.4 nM (input ligand: FMN 200 uM) and 21.6 nM (input ligand: none).

“CGUCAGAUCGCAGGAUAUGUUAGAUGAGCACAGAAUGUCCAGACCACAUGAGGAUCACCCAUGUAACAGAAGGGCGGUCUACGG [Eternabot solution 29] (Eterna round: R96, puzzle: Exclusion NG 2)”: the “apparent KD of MS2 coat protein” value by setting is: (input ligand: FMN 200 uM) 79.3 nM; under setting [4], 195 nM; (input ligand: none) 95.6 nM.

As to “ACAUGUUGCGCAGGAUAUGGGACACAUGAGGAUCACCCAUGUGGUUACAUGUCUUACCAAGCGUCCCAGAAGGGCGUGAACAUG [Ex NG2 #31] (Eterna round: R96, puzzle: Exclusion NG 2)”, the “apparent KD of MS2 coat protein” value is, setting by setting: (input ligand: FMN 200 uM) 28.6 nM; under setting [4], 18.4 nM; (input ligand: none) 22.1 nM.

Take “GACACUCAUGUAAGUAUUUACAUGAGGAUCACCCAUGUACCACUAGAAGACUAGGGAACGAAACGAGCUGGCUGUCA [Eternabot (Original) Solution 6] (Eterna round: R97, puzzle: Sensor, turn-off variant 1)”: the “apparent KD of MS2 coat protein” value was determined as 1290 nM (input ligand: FMN 200 uM) and 567 nM (input ligand: none).

In the case of “UGAGUGCUGCGAGGAUAUACAUGAGGAUCACCCAUGUUUUCGUGUGAGGCAAAGCCUCACACGAUGUAGAAGGCGCAGUACUCU [Mat - Exclusion NG 2 - Mod of JL - D35] (Eterna round: R96, puzzle: Exclusion NG 2)”, the “apparent KD of MS2 coat protein” value is, setting by setting: (input ligand: FMN 200 uM) 13.2 nM; under setting [4], 10.7 nM; (input ligand: none) 16.1 nM.

On to “CCUCAACAGUAGGAUAUCAUAUAACUAUUGUGAUGAGAAGGACUGACAUGAGGAUCACCCAUGUUAACGUGAUA [Exclusion 6 - 5:b] (puzzle: Exclusion 6)”, for which, under setting [2], the “apparent KD of MS2 coat protein” value came out at 17.3 nM.

Consider “GGCAUGUAAGGAUAUGCCACCGAGUGCUUUGCGCUCGGUAAGCAGAAGGUACAUGAGGAUCACCCAUGUGAUAA [jl-ex4-4.55 ViennaUCT mod] (Eterna round: R97, puzzle: Exclusion 4)”, for which the “apparent KD of MS2 coat protein” value was determined as 132 nM (input ligand: FMN 200 uM) and 660 nM (input ligand: none).

For “AACAAUACUUACAUAAUAAGGCUUUUCAGGUCGGGUACCACAUGAGGAUCACCCAUGUAGCAGCCUAGGGAAUGAUA [JR_Sensorv2_tov2_Sub1233] (Eterna round: R96, puzzle: Sensor v2, turn-off variant 2)”, the “apparent KD of MS2 coat protein” value by setting is: (input ligand: FMN 200 uM) 49.2 nM; under setting [4], 36.4 nM; (input ligand: none) 46.1 nM.

Consider “CACCGUUAGAGAGGAUAUCGUACAUGAGGAUCACCCAUGUAAUAAAUGAGAAUUUCGGAUGUCUGCGAGAAGGCUCGAAUCGGC [Ostracism 32 - Jieux - Exclusion NG 2] (Eterna round: R96, puzzle: Exclusion NG 2)”, for which, under setting [4], the “apparent KD of MS2 coat protein” value was 23 nM.

Consider “AGCCACAGAGGAUAUACAUACAUCCAGUAGUAGAUACUACUACAUGAGGAUCACCCAUGUAGAAGGCUGUGGCA [Omei Ex2 BD B17] (Eterna round: R97, puzzle: Exclusion 2)”, for which the “apparent KD of MS2 coat protein” value reads like this: (input ligand: FMN 200 uM) 603 nM; (input ligand: none) 162 nM.

“UAAUACUCAGGAUAUAUGAUGUGAAACAUGAGGAUCACCCAUGUAAUAUUAUGGAUGUAAAUAGAAGGGAGAUUAU [Mat - Exclusion 5 - JL mod - D20] (puzzle: Exclusion 5)”: the “apparent KD of MS2 coat protein” value is 53.3 nM under setting [1], 55.4 nM under setting [2] and 63 nM under setting [3].

As for “GUAGAGUCAGGAUAUACGAGAUCGAAAGAUCAAAGAUCCUUACAUGAGGAUCACCCAUGUAGAAGGGACUCUAC [Eli x2 4.14] (Eterna round: R97, puzzle: Exclusion 2)”, the “apparent KD of MS2 coat protein” value (input ligand: FMN 200 uM) was found to be 574 nM and the “apparent KD of MS2 coat protein” value (input ligand: none) turned out to be 37.1 nM.

Regarding “UAUGGUUAAGUCAGGAUAUGCACGAAGAGAUCAAUGCAGAAGGGACAUGAGGAUCACCCAUGUAAAGUCGUGUU [Ex4 #74] (Eterna round: R97, puzzle: Brourd's mod of Exclusion 4)”, the “apparent KD of MS2 coat protein” value (input ligand: FMN 200 uM) turned out to be 55.1 nM and the “apparent KD of MS2 coat protein” value (input ligand: none) came out at 27.7 nM.

As to “UAAUGUAUAUAGGAUAUCUAGCUGGAAACAGCUAGAGAAGGAUGUACAUGAGGAUCACCCAUGUAAAUCGUGAA [Ex6/13-B1] (Eterna round: R97, puzzle: Exclusion 6)”, the “apparent KD of MS2 coat protein” value is 60.4 nM (input ligand: FMN 200 uM) and 24.9 nM (input ligand: none).

In the case of “AAGGGUGCUUUCAGAACGACAUGAGGAUCACCCAUGUAGACUGAGGAUAUCUACUUCUAAGGACGGGAGAAGGCAGUGUAAUGU [Ex NG3 #71] (Eterna round: R96, puzzle: Exclusion NG 3)”, the “apparent KD of MS2 coat protein” value was determined as 25.5 nM (input ligand: FMN 200 uM), 17.8 nM under setting [4] and 22.6 nM (input ligand: none).

For the sequence “CCUCAGUCACAGGAUAUGCUCAUCUAAUGAUGAGCAGAAGGGUGAACAUGAGGAUCACCCAUGUUUACGGUGGU [Omei Ex6 E8] (Eterna round: R97, puzzle: Exclusion 6)”, the “apparent KD of MS2 coat protein” value runs as follows: (input ligand: FMN 200 uM) 122 nM; (input ligand: none) 328 nM.

With “UCACGGGACUGAGGAUAUACAUGAAUUAUUUUUGUAGAAGGCAGAAUGUUAGUUUAUUCACUAUACAUGAGGAUCACCCAUGUU [JR_ExcNG1_Sub021] (Eterna round: R96, puzzle: Exclusion NG 1)”, the “apparent KD of MS2 coat protein” value came to 21.5 nM (input ligand: FMN 200 uM), 26.7 nM under setting [4] and 32.9 nM (input ligand: none).

Take “AGCUAGAUAGGAUAUGCCCGAGAUAACAUGAGGAUCACCCAUGUGACCGAAUCAAAUCUAGCAGAAGGGUUUAGGA [Mod of ViennaUCT 15 - Jieux - Exclusion 5] (Eterna round: R97, puzzle: Exclusion 5)”: the “apparent KD of MS2 coat protein” value came to 16.5 nM (input ligand: FMN 200 uM) and 17.2 nM (input ligand: none).

Take “CCGAGGAAGCGGUCCUAUGACAUGAGGAUCACCCAUGUACCUCGCUACGAGCUUUUUGCUCGUCUUAUAAUUCUCGG [Mat - Sensor v3 - turn-off var 1 - JL Mod - D28] (puzzle: Sensor v3, turn-off variant 1)”: the “apparent KD of MS2 coat protein” value runs as follows: under setting [1], 24.2 nM; under setting [2], 65.5 nM.

For the sequence “UAGAGACAUGAGGAUCACCCAUGUGAGGAUAUAGAGAAAGAUUGCGAGAGGGAGAGGACUAGAAGGCACAGUGA [JR_Exclu1_Sub033] (puzzle: Exclusion 1)”, the “apparent KD of MS2 coat protein” value runs as follows: under setting [1], 39.1 nM; under setting [2], 48.8 nM; under setting [3], 51.9 nM.

Regarding “UAAAGUAUAUAGGAUAUCUAGCUGGAAACAGCUAGAGAAGGAUGUACAUGAGGAUCACCCAUGUAGAUCUCAAA [Ex6/15-A2] (Eterna round: R97, puzzle: Exclusion 6)”, the “apparent KD of MS2 coat protein” value turned out to be 19 nM (input ligand: FMN 200 uM) and 16.2 nM (input ligand: none).

Regarding “CCAUCUCUAGUAGGAUAUGUCGGAUAUGUUGUUGAGGUUCACCCAACGACGUCAAUGACAGAAGGACAGAAGGACUCUCGAUGC [pwkr exNG2 2xFMN 1xF5.6] (Eterna round: R96, puzzle: Exclusion NG 2)”, the “apparent KD of MS2 coat protein” value amounted to 114 nM (input ligand: FMN 200 uM), 463 nM under setting [4] and 183 nM (input ligand: none).

For the sequence “UGGACAUGAGGAUCACCCAUGUAAUACACACCUCAGCCACGAGAGGAUAUGCCCGGAGGACCGGCGCAGAAGGCUCCCAAGAGA [Eternabot solution 10] (Eterna round: R96, puzzle: Exclusion NG 3)”, the “apparent KD of MS2 coat protein” value runs as follows: (input ligand: FMN 200 uM) 83.8 nM; under setting [4], 29.5 nM; (input ligand: none) 48.1 nM.

Consider “AAUUUUUAUGUAAGGAUAUGGGUUUGGAAACGGGCUUAGAAGGUACAUGAGGAUCACCCAUGUAUAAUGUGCGU [-19.9, -19.7 kcal, 30% A] (Eterna round: R97, puzzle: Brourd's mod of Exclusion 4)”, for which the “apparent KD of MS2 coat protein” value amounted to 19 nM (input ligand: FMN 200 uM) and 18.3 nM (input ligand: none).
